Source: doi:10.1101/2023.08.25.554913 (bioRxiv, 2023)

Molecular target: the molecule itself
Experiment: SEC

B1: PfuAmyGT (PF0272) from Pyrococcus furiosus, wild type (enzyme, UniProt P49067 1-649, looked up)
chain: MGDKINFIFGIHNHQPLGNFGWVFEEAYEKCYWPFLETLEEYPNMKVAIHTSGPLIEWLQDNRPEYIDLLRSLVKRGQVEIVVAGFYEPVLASIPKEDRIEQIRLMKEWAKSIGFDARGVWLTERVWQPELVKTLKESGIDYVIVDDYHFMSAGLSKEELYWPYYTEDGGEVIAVFPIDEKLRYLIPFRPVDKVLEYLHSLIDGDESKVAVFHDDGEKFGIWPGTYEWVYEKGWLREFFDRISSDEKINLMLYTEYLEKYKPRGLVYLPIASYFEMSEWSLPAKQARLFVEFVNELKVKGIFEKYRVFVRGGIWKNFFYKYPESNYMHKRMLMVSKLVRNNPEARKYLLRAQCNDAYWHGLFGGVYLPHLRRAIWNNLIKANSYVSLGKVIRDIDYDGFEEVLIENDNFYAVFKPSYGGSLVEFSSKNRLVNYVDVLARRWEHYHGYVESQFDGVASIHELEKKIPDEIRKEVAYDKYRRFMLQDHVVPLGTTLEDFMFSRQQEIGEFPRVPYSYELLDGGIRLKREHLGIEVEKTVKLVNDGFEVEYIVNNKTGNPVLFAVELNVAVQSIMESPGVLRGKEIVVDDKYAVGKFALKFEDEMEVWKYPVKTLSQSESGWDLIQQGVSYIVPIRLEDKIRFKLKFEEASG
stoichiometry N: 2
